Assay results taken from patent US20130287781A1.
pKd: −log10 of the molar value.

How the values were obtained:
[1] = biological target: Squirrel monkey NOGO (A56) plus GST tag (squirrel monkey); assay: direct ELISA on GST-NOGO-A56 from squirrel monkey, Abs490
[2] = biological target: Rat NOGO (A56) plus GST tag (rat); assay: direct ELISA on GST-NOGO-A56 from rat, Abs490
[3] = biological target: Marmoset NOGO (A56) plus GST tag (marmoset); assay: direct ELISA on GST-NOGO-A56 from marmoset, Abs490
Marmoset NOGO (A56) plus GST tag (marmoset), sequence (chain, as listed by the source limits assumed): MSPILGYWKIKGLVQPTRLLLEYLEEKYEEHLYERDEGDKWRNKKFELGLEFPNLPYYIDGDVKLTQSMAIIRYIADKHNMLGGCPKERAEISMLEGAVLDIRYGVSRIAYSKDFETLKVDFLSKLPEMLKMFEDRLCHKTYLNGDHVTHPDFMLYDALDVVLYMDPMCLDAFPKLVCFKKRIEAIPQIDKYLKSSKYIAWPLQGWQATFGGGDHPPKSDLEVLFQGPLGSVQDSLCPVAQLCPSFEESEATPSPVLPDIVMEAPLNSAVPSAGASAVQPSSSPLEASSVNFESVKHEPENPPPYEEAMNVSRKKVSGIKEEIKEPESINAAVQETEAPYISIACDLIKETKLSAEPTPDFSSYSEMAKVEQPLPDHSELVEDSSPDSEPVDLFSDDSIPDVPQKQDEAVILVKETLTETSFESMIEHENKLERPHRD

[4] = biological target: Squirrel monkey NOGO (A56) plus GST tag (squirrel monkey); assay: SPR (Biacore T100), reverse format: antibody captured by Protein A, GST-NOGO-A56 flowed over; mean
[5] = biological target: Rat NOGO (A56) plus GST tag (rat); assay: as above
[6] = biological target: Marmoset NOGO (A56) plus GST tag (marmoset); assay: as above
[7] = biological target: GST-human NOGO-A56 (human); assay: as above
GST-human NOGO-A56 (human), sequence (chain, as listed by the source limits assumed): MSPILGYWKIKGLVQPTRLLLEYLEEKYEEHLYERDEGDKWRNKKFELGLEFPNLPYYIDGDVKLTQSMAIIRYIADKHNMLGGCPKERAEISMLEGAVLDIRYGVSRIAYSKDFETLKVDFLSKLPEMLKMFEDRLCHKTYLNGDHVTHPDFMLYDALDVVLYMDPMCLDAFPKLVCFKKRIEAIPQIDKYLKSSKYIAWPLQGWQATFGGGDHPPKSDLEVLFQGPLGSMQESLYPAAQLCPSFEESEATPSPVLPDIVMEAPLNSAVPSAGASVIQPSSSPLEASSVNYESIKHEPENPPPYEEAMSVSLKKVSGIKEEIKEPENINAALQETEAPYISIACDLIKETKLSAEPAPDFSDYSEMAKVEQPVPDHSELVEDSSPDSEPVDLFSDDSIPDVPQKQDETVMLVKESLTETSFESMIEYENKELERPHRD

[8] = biological target: Cynomolgus monkey NOGO (A56) plus GST tag (cynomolgus monkey); assay: as above
Cynomolgus monkey NOGO (A56) plus GST tag (cynomolgus monkey), sequence (chain, as listed by the source limits assumed): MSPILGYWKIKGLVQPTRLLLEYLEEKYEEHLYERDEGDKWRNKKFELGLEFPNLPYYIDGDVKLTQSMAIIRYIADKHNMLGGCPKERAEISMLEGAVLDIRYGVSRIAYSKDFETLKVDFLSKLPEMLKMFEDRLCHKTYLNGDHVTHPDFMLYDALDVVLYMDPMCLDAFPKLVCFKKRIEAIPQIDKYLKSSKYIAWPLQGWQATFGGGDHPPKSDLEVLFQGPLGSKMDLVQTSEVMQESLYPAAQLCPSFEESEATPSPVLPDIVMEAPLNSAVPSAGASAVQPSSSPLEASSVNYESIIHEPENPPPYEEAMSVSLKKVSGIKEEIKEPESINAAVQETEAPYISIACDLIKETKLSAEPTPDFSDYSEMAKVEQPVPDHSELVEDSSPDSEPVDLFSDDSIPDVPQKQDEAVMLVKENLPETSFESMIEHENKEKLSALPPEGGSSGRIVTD

[9] = biological target: Squirrel monkey NOGO (A56) plus GST tag (squirrel monkey); assay: SPR (Biacore T100), Nogo-A orthologue amine-coupled to CM5, antibody 0.125-8 nM flowed over; mean
[10] = biological target: Rat NOGO (A56) plus GST tag (rat); assay: as above
[11] = biological target: Marmoset NOGO (A56) plus GST tag (marmoset); assay: as above
[12] = biological target: Cynomolgus monkey NOGO (A56) plus GST tag (cynomolgus monkey); assay: as above
[13] = biological target: Cynomolgus monkey NOGO (A56) plus GST tag (cynomolgus monkey); assay: direct ELISA on GST-NOGO-A56 from cynomolgus, Abs490
[14] = biological target: GST-human NOGO-A56 (human); assay: SPR (Biacore T100), human Nogo-A amine-coupled to CM5, antibody 0.125-8 nM flowed over; mean

Squirrel monkey NOGO (A56) plus GST tag (squirrel monkey), sequence (chain, as listed by the source limits assumed): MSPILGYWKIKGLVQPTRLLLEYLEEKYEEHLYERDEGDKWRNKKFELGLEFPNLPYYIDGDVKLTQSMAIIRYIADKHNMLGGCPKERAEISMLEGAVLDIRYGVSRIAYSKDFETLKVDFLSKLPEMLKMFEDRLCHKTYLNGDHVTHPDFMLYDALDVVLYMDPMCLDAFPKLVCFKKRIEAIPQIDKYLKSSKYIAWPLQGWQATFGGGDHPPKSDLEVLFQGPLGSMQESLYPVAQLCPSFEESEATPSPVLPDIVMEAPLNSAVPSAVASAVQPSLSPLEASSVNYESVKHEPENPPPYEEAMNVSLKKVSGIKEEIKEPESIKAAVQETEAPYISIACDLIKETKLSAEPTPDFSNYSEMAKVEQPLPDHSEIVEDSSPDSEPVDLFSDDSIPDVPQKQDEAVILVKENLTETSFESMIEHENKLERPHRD
Rat NOGO (A56) plus GST tag (rat), sequence (chain, as listed by the source limits assumed): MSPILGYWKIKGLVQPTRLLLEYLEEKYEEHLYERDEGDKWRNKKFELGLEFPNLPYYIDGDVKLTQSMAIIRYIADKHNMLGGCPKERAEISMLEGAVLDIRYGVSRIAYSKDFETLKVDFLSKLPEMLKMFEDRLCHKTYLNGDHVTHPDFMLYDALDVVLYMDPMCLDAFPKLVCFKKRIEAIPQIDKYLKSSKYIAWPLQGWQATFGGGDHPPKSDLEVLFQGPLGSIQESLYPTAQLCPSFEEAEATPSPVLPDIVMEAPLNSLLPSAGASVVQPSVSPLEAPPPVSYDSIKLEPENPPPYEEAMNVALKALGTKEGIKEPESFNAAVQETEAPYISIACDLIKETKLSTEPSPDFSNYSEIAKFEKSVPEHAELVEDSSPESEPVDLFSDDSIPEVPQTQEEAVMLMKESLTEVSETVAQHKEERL

- EC50 (read off the curve) [1]: 0.04 mg/L
- EC50 (read off the curve) [2]: 0.06 mg/L
- EC50 (read off the curve) [3]: 0.04 mg/L
- pKd [4]: 8.57
- pKd [5]: 9.19
- pKd [6]: 8.88
- pKd [7]: 9.24
- pKd [8]: 9.12
- pKd [9]: 9.59
- pKd [10]: 9.96
- pKd [11]: 9.62
- pKd [12]: 9.64
- EC50 (read off the curve) [13]: 0.06 mg/L
- pKd [14]: 9.72
Substance: chimeric 11C7 (antibody)
